[ ]: non-standard residue; d: D form.
Biological target: integrin αvβ3 on bEnd.3 vesicles (mouse (endogenous in bEnd.3), UniProt P43406 31-1044; O54890 26-787)
Test: SPR

integrin αvβ3 on bEnd.3 vesicles, sequence (P43406 31-1044, chain 1 of 2): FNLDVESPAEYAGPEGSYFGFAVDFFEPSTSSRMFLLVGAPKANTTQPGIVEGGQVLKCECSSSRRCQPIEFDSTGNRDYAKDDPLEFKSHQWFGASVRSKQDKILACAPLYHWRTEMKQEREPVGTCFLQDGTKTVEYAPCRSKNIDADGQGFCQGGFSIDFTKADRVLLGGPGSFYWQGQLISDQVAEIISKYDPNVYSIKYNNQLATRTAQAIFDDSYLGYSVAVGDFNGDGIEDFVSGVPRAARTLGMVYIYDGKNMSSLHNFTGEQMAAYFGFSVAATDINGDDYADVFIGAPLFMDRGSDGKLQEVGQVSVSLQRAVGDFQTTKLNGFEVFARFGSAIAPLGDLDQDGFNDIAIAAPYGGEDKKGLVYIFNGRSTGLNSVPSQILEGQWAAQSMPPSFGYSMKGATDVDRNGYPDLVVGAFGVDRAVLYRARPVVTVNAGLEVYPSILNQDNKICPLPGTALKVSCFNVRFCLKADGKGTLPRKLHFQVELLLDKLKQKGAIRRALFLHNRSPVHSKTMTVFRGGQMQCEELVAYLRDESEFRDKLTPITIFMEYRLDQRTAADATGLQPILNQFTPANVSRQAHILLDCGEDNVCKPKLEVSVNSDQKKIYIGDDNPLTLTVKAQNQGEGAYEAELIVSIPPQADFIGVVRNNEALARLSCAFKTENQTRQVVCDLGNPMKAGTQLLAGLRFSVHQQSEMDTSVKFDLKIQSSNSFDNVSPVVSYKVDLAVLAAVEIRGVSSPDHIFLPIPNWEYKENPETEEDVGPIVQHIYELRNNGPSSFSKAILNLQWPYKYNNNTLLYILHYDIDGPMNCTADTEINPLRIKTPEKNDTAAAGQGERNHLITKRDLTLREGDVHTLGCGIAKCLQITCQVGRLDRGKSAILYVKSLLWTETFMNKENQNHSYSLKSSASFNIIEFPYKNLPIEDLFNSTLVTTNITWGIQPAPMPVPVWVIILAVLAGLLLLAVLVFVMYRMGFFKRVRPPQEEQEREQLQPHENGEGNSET
integrin αvβ3 on bEnd.3 vesicles, sequence (O54890 26-787, chain 2 of 2): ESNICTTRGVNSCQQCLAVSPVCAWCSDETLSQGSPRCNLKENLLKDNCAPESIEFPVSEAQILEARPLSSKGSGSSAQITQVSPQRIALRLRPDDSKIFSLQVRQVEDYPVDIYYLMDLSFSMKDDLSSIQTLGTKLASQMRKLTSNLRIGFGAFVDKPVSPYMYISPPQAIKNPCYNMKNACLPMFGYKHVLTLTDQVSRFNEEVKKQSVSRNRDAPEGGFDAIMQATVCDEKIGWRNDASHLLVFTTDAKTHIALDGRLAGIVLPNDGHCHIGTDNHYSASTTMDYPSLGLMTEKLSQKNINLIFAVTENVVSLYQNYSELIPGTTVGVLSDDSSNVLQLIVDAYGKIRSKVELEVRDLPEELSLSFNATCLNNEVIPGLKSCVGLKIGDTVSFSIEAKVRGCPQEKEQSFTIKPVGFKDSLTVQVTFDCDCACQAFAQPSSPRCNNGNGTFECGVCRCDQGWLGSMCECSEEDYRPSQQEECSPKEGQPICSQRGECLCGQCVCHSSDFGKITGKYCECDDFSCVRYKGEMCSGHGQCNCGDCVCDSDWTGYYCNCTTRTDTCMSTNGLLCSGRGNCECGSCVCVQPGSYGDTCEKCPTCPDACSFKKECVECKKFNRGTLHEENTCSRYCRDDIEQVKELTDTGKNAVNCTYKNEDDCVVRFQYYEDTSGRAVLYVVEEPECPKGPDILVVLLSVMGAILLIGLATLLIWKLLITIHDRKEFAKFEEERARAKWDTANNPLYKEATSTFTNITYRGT

Kd: 17.1 µM
B1: c(RGDyK) peptide (peptide)
peptide: cyclo(RGD[dY]K)
